According to FireProtDB (doi:10.1021/bi00158a021):

Conditions: Bos taurus, pH 8, GdnHCl, CD, cacodylate 50 mM, reversible: yes

| Substance | ddG of mutation (higher = less stable) (30 °C, structure 1BP2) | denaturant m value (30 °C, structure 1BP2) | denaturant midpoint (higher = more stable) (30 °C, structure 1BP2) | unfolding free energy (30 °C, structure 1BP2) | further results |
| --- | --- | --- | --- | --- | --- |
| Phospholipase A2 F128I, P00593 | -1.9 kcal/mol | 1.65 kcal/mol/M | 6.9 M | 11.4 kcal/mol |  |
| Phospholipase A2 F44Y, P00593 | -1.5 kcal/mol | 1.58 kcal/mol/M | 7 M | 11 kcal/mol |  |
| Phospholipase A2 F44I, P00593 | -2.7 kcal/mol | 1.73 kcal/mol/M | 7 M | 12.2 kcal/mol |  |
| Phospholipase A2 wild type, P00593 |  |  |  |  | denaturant m value (30 °C): 1.47 kcal/mol/M; denaturant midpoint (higher = more stable) (30 °C): 6.9 M; unfolding free energy (30 °C): 9.5 kcal/mol |
| Phospholipase A2 F128A, P00593 |  |  |  |  | ddG of mutation (higher = less stable) (25 °C, structure 1BP2): 0.9 kcal/mol; denaturant m value (25 °C, structure 1BP2): 1.47 kcal/mol/M; denaturant midpoint (higher = more stable) (25 °C, structure 1BP2): 5.9 M; unfolding free energy (25 °C, structure 1BP2): 8.6 kcal/mol |
| Phospholipase A2 F128Y, P00593 | -0.6 kcal/mol | 1.53 kcal/mol/M | 6.6 M | 10.1 kcal/mol |  |
